From the supplement of paper PMC7125110
± gives the standard error. For part of these data: This sample holds only a part of the variants without activity.

B1: glmS ribozyme (parent)
chain: AUAAAAGCGCCAGAACUACAGAAAUGUAGUUGACGAGGAGGAGGUUUAUCGAAUUUUCGGCGGAUGCCUCCAAA

Tests used:
Details in all cases: with glucosamine-6-phosphate
glucosamine-6-phosphate [1] = variants of: B1; experiment: kcat; higher = faster cleavage; RNA array
How it was run: (§1)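 Barcoded ribozyme variants on sequenced MiSeq chips were transcribed in situ by E. coli RNA polymerase and followed at 37 °C through a hybridised Cy3 probe. Glucosamine-6-phosphate at 40 μM to 10 mM in HEPES/KCl/Mg(OAc)2 buffer was flowed in, and tiles were imaged over ~14 h. Signals were normalised to baseline and to non-cleaving reference variants, and per-tile medians were fit to one- or two-exponential decays to give kobs. Weighted Michaelis–Menten fits across concentrations gave kcat and KM.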

glucosamine-6-phosphate [2] = variants of: B1; experiment: KM; higher = weaker cofactor use; RNA array
How it was run: as §1

glucosamine-6-phosphate [3] = variants of: B1; experiment: self-cleavage kobs at 640 uM GlcN6P; higher = faster cleavage; RNA array
How it was run: as §1

glucosamine-6-phosphate [4] = variants of: B1; experiment: self-cleavage kobs at 2500 uM GlcN6P; higher = faster cleavage; RNA array
How it was run: as §1

glucosamine-6-phosphate [5] = variants of: B1; experiment: self-cleavage kobs at 10000 uM GlcN6P; higher = faster cleavage; RNA array
How it was run: as §1

glucosamine-6-phosphate [6] = variants of: B1; experiment: self-cleavage kobs at 40 uM GlcN6P; higher = faster cleavage; RNA array
How it was run: as §1

glucosamine-6-phosphate [7] = variants of: B1; experiment: self-cleavage kobs at 160 uM GlcN6P; higher = faster cleavage; RNA array
How it was run: as §1

Row | Variant | kcat (glucosamine-6-phosphate [1]) [s⁻¹] | KM (glucosamine-6-phosphate [2]) [µM] | self-cleavage kobs at 640 uM GlcN6P (glucosamine-6-phosphate [3]) [s⁻¹] | self-cleavage kobs at 2500 uM GlcN6P (glucosamine-6-phosphate [4]) [s⁻¹] | self-cleavage kobs at 10000 uM GlcN6P (glucosamine-6-phosphate [5]) [s⁻¹] | self-cleavage kobs at 40 uM GlcN6P (glucosamine-6-phosphate [6]) [s⁻¹] | self-cleavage kobs at 160 uM GlcN6P (glucosamine-6-phosphate [7]) [s⁻¹]
1 | C11A U31G | 0.000375 ± 9.9e-05 | 3900 ± 1600 | 4.58e-05 ± 1.1e-05 | 0.000179 ± 3.7e-05 | 0.000253 ± 5.7e-05 |  | 
2 | A12C G66U | 0.00165 ± 0.00058 | 1990 ± 990 | 0.000586 ± 6.9e-05 | 0.000865 ± 0.00014 | 0.00133 ± 0.0002 | 5.83e-05 ± 1.3e-05 | 9.73e-05 ± 1.3e-05
3 | A12U A36U C68A | 1.17e-05 ± 3.8e-06 |  |  |  |  |  | 
4 | A6U C50U | < 1e-05 |  |  | < 1e-05 |  |  | 
5 | A12C U55C | 0.00941 ± 0.0032 | 2710 ± 1200 | 0.00235 ± 0.00034 | 0.00417 ± 0.00083 | 0.00731 ± 0.0019 | 0.000147 ± 2.6e-05 | 0.000402 ± 8.8e-05
6 | U30G G43U | 1.16e-05 ± 2.3e-06 |  | < 1e-05 |  |  |  | < 1e-05
7 | A36U A52G | 1.01e-05 ± 3e-06 |  |  |  | < 1e-05 | < 1e-05 | 
8 | G32A U49A U54G G59A C67U | 1.76e-05 ± 5.6e-06 |  |  |  |  |  | 
9 | A33G G60C | < 1e-05 |  | < 1e-05 |  |  |  | < 1e-05
10 | G13U U49G | 1.85e-05 ± 6.3e-06 |  |  |  |  | < 1e-05 | < 1e-05
11 | A36G U45A | 3.07e-05 ± 8.9e-06 |  |  |  |  |  | 
12 | A39U G51A | < 1e-05 |  |  |  | < 1e-05 | < 1e-05 | < 1e-05
13 | C16A G51A U56G C68G | 1.58e-05 ± 2.3e-06 |  |  |  |  |  | 
14 | A1U U2G A3G A5U | 0.0105 ± 0.0015 | 1320 ± 260 | 0.00274 ± 0.00078 | 0.006 ± 0.0016 | 0.0103 ± 0.0017 | 0.000338 ± 5.7e-05 | 0.00116 ± 0.00022
15 | A39U G40A | 0.00855 ± 0.0042 |  | 0.00165 ± 0.00021 | 0.00537 ± 0.0012 | 0.00952 ± 0.0017 | 0.000239 ± 2.5e-05 | 0.000664 ± 0.0001
16 | C50U U65G | < 1e-05 |  |  |  |  | < 1e-05 | 
17 | G29C G40A | 0.000208 ± 2.8e-05 | 747 ± 260 | 0.000102 ± 1.6e-05 | 0.000221 ± 3.6e-05 | 0.000178 ± 2.1e-05 |  | 3.05e-05 ± 9.1e-06
18 | G41A | 0.00567 ± 0.0025 |  | 0.000923 ± 0.0001 | 0.00264 ± 0.00017 |  | 0.000349 ± 0.00013 | 0.00036 ± 6.4e-05
19 | A14C G40U | 0.000718 ± 9.8e-05 | 2800 ± 790 | 0.000144 ± 2.2e-05 | 0.000352 ± 6.1e-05 | 0.000555 ± 5.2e-05 |  | 
